# Data: US20230134571A1 (INTERNATIONAL AIDS VACCINE INITIATIVE, published 2023)
# B1: ePGDM9 (antibody, V domains shown)
# VH: QAQLVQSGPEVRKPGTSVKVSCKNPGNTLTTYDLHWVRQVPGQGLQWMGWISHEGDKKVIVERFKAKVTIDWDRSTNTAYLQLSGLTSEDTAVYYCAKGSKHRLRDYALYDEDGALNWAVDVDYLANLEFWGQGTAVTVSS
# VL: DIVLTQSPLSLSVTPGESASISCKSSQSLIHGDRNNYLAWYVQKPGRSPQLLIDLASERASGVPDRFSGSGSRKDFTLKISRVETEDVGTYYCMQGRESPWTFGQGTKVDIK
# B2: ePGDM5 (antibody, V domains shown)
# VH: QAQLVQSGPEVRKPGTSVKVSCKNPGNTLTTYDLHWVRQVPGQGLQWMGWISHEGDKKVIVERFKAKVTIDWDRSTNTAYLQLSGLTSEDTAVYYCAKGSKHRLRDYALYDEDGALNWAVDVDYLANLEFWGQGTAVTVSS
# VL: DFVLTQSPLSLSVTPGESASISCKSDHSLQHGDRNNYLAWYVQKPGRSPQLLIDLASERASGVPDRFSGSGSRKDFTLKIDRVEAEDVGTYYCMQGRESPWTFGQGTKVDIK
# B3: ePGDM13 (antibody, V domains shown)
# VH: QAQLVQSGPEVRKPGTSVKVSCKNPGNTLTTYDLHWVRQVPGQGLQWMGWISHEGDKKVIVERFKAKVTIDWDRSTNTAYLQLSGLTSEDTAVYYCAKGSKHRLRDYALYDEDGALNWAVDVDYLANLEFWGQGTAVTVSS
# VL: DIVLTQSPLSLSVTPGESASISCKSSHSLQHGDRNNYLAWYVQKPGRSPQLLLDLASERASGVPDRFSGSGSEKDFTLKISRVETEDVGTYYCMQGRESPWTFGQGTKVDIK
# B4: PGDM1400 (antibody, V domains shown)
# VH: QVHLTQSGPEVRKPGTSVKVSCKAPGNTLKTYDLHWVRSVPGQGLQWMGWISHEGDKKVIVERFKAKVTIDWDRSTNTAYLQLSGLTSGDTAVYYCAKGSKHRLRDYALYDDDGALNWAVDVDYLSNLEFWGQGTAVTVSS
# VL: DFVLTQSPHSLSVTPGESASISCKSSHSLIHGDRNNYLAWYVQKPGRSPQLLIYLASSRASGVPDRFSGSGSDKDFTLKISRVETEDVGTYYCMQGRESPWTFGQGTKVDIK
# Experiments:
# Assay in all cases: cell-based or functional assay
# [1] = target: HIV Env, isolate X1193_C1 (HIV)
# [2] = target: HIV Env, isolate CNE52 (HIV)
# [3] = target: HIV Env, isolate HIV-16845-2.22 (HIV)
# [4] = target: HIV Env, isolate WITO4160.33 (HIV)
# [5] = target: HIV Env, isolate HIV-001428-2.42 (HIV)
# [6] = target: HIV Env, isolate CNE20 (HIV)
# [7] = target: HIV Env, isolate 6952.v1.c20 (HIV)
# [8] = target: HIV Env, isolate Ce2010_F5 (HIV)
# [9] = target: HIV Env, isolate ZM233M.PB6 (HIV)
# [10] = target: HIV Env, isolate CNE21 (HIV)
# [11] = target: HIV Env, isolate 1054_07_TC4_1499 (HIV)
# [12] = target: HIV Env, isolate CNE19 (HIV)
# [13] = target: HIV Env, isolate HIV-16055-2.3 (HIV)
# [14] = target: HIV Env, isolate CNE30 (HIV)
# [15] = target: HIV Env, isolate 1012_11_TC21_3257 (HIV)
# [16] = target: HIV Env, isolate CAP45.2.00.G3 (HIV)
Binder,IC80 (µg/ml) with constrains [1] [µg/mL],IC80 (µg/ml) with constrains [2] [µg/mL],IC80 (µg/ml) with constrains [3] [µg/mL],IC80 (µg/ml) with constrains [4] [µg/mL],IC80 (µg/ml) with constrains [5] [µg/mL],IC80 (µg/ml) with constrains [6] [µg/mL],IC80 (µg/ml) with constrains [7] [µg/mL],IC80 (µg/ml) with constrains [8] [µg/mL],IC80 (µg/ml) with constrains [9] [µg/mL],IC80 (µg/ml) with constrains [10] [µg/mL],IC80 (µg/ml) with constrains [11] [µg/mL],IC80 (µg/ml) with constrains [12] [µg/mL],IC80 (µg/ml) with constrains [13] [µg/mL],IC80 (µg/ml) with constrains [14] [µg/mL],IC80 (µg/ml) with constrains [15] [µg/mL],IC80 (µg/ml) with constrains [16] [µg/mL]
B1,0.158,7.39,> 100,0.009,0.008,0.008,0.21,> 100,0.007,0.007,> 100,0.012,0.006,> 100,0.167,0.005
B2,0.156,24.6,> 100,0.015,0.013,0.015,0.132,> 100,0.007,0.007,> 100,0.012,0.007,> 100,0.305,0.004
B3,0.381,11.3,> 100,0.013,0.011,0.015,0.318,> 100,0.006,0.006,> 100,0.013,0.011,> 100,0.26,0.007
B4,0.374,> 100,> 100,0.013,0.054,0.021,7.03,> 100,0.007,0.011,> 100,0.019,0.013,> 100,0.303,0.005
